Experimental data from patent publication US11653679B2, “High-purity steviol glycosides” (PureCircle Sdn Bhd, priority 2014, dated 2023).
Residue numbers refer to the chain shown, from its start.

B1: UGT76G1var74: UGT76G1 variant, mutations I295T_I373L_S375R_Y397Q_Q432E (protein, UniProt Q6VAB4 1-458, looked up, variant I295T I373L S375R Y397Q Q432E)
UDP-glycosyltransferase 76G1: MENKTETTVRRRRRIILFPVPFQGHINPILQLANVLYSKGFSITIFHTNFNKPKTSNYPHFTFRFILDNDPQDERISNLPTHGPLAGMRIPIINEHGADELRRELELLMLASEEDEEVSCLITDALWYFAQSVADSLNLRRLVLMTSSLFNFHAHVSLPQFDELGYLDPDDKTRLEEQASGFPMLKVKDIKSAYSNWQILKEILGKMIKQTKASSGVIWNSFKELEESELETVIREIPAPSFLIPLPKHLTASSSSLLDHDRTVFQWLDQQPPSSVLYVSFGSTSEVDEKDFLETARGLVDSKQSFLWVVRPGFVKGSTWVEPLPDGFLGERGRIVKWVPQQEVLAHGAIGAFWTHSGWNSTLESVCEGVPMLFRDFGLDQPLNARYMSDVLKVGVQLENGWERGEIANAIRRVMVDEEGEYIRQNARVLKEKADVSLMKGGSSYESLESLVSYISSL
B2: UGT76G1var5: UGT76G1 variant, mutations F22Y_I373L_P382M (protein, UniProt Q6VAB4 1-458, looked up, variant F22Y I373L P382M)
UDP-glycosyltransferase 76G1: B1 UDP-glycosyltransferase 76G1 with F22Y, T295I, R375S, P382M, Q397Y, E432Q
B3: UGT76G1var4: UGT76G1 variant, mutations E224D_E231A_F265I (protein, UniProt Q6VAB4 1-458, looked up, variant E224D E231A F265I)
UDP-glycosyltransferase 76G1: B1 UDP-glycosyltransferase 76G1 with E224D, E231A, F265I, T295I, L373I, R375S, Q397Y, E432Q
B4: UGT76G1var78: UGT76G1 variant, mutations V279I_V300A_V310I_I335V_S357C (protein, UniProt Q6VAB4 1-458, looked up, variant V279I V300A V310I I335V S357C)
UDP-glycosyltransferase 76G1: B1 UDP-glycosyltransferase 76G1 with V279I, T295I, V300A, V310I, I335V, S357C, L373I, R375S, Q397Y, E432Q
B5: UGT76G1var92: UGT76G1 variant, mutations K303G_S357N_V366I_V394I_I407V (protein, UniProt Q6VAB4 1-458, looked up, variant K303G S357N V366I V394I I407V)
UDP-glycosyltransferase 76G1: B1 UDP-glycosyltransferase 76G1 with T295I, K303G, S357N, V366I, L373I, R375S, V394I, Q397Y, I407V, E432Q
B6: UGT76G1var84: UGT76G1 variant, mutations F22L_Q266S_F314S_A352G_S357C (protein, UniProt Q6VAB4 1-458, looked up, variant F22L Q266S F314S A352G S357C)
UDP-glycosyltransferase 76G1: B1 UDP-glycosyltransferase 76G1 with F22L, Q266S, T295I, F314S, A352G, S357C, L373I, R375S, Q397Y, E432Q
B7: UGT76G1var75: UGT76G1 variant, mutations F41L_A239I_Q266S_S375M_P382M (protein, UniProt Q6VAB4 1-458, looked up, variant F41L A239I Q266S S375M P382M)
UDP-glycosyltransferase 76G1: B1 UDP-glycosyltransferase 76G1 with F41L, A239I, Q266S, T295I, L373I, R375M, P382M, Q397Y, E432Q
B8: UGT76G1var85: UGT76G1 variant, mutations T284L_G348P_F377C_P382M_N409R (protein, UniProt Q6VAB4 1-458, looked up, variant T284L G348P F377C P382M N409R)
UDP-glycosyltransferase 76G1: B1 UDP-glycosyltransferase 76G1 with T284L, T295I, G348P, L373I, R375S, F377C, P382M, Q397Y, N409R, E432Q
B9: UGT76G1var88: UGT76G1 variant, mutations A239V_T284I_V310I_Q342K_L379A (protein, UniProt Q6VAB4 1-458, looked up, variant A239V T284I V310I Q342K L379A)
UDP-glycosyltransferase 76G1: B1 UDP-glycosyltransferase 76G1 with A239V, T284I, T295I, V310I, Q342K, L373I, R375S, L379A, Q397Y, E432Q
B10: UGT76G1var81: UGT76G1 variant, mutations A33G_T263S_S274G_V279I_Y397E (protein, UniProt Q6VAB4 1-458, looked up, variant A33G T263S S274G V279I Y397E)
UDP-glycosyltransferase 76G1: B1 UDP-glycosyltransferase 76G1 with A33G, T263S, S274G, V279I, T295I, L373I, R375S, Q397E, E432Q
B11: UGT76G1var93: UGT76G1 variant, mutations I43V_Q266E_S375M_S389E_V394I (protein, UniProt Q6VAB4 1-458, looked up, variant I43V Q266E S375M S389E V394I)
UDP-glycosyltransferase 76G1: B1 UDP-glycosyltransferase 76G1 with I43V, Q266E, T295I, L373I, R375M, S389E, V394I, Q397Y, E432Q
B12: UGT76G1var79: UGT76G1 variant, mutations E224D_T284I_V366I_I373L_K393G (protein, UniProt Q6VAB4 1-458, looked up, variant E224D T284I V366I I373L K393G)
UDP-glycosyltransferase 76G1: B1 UDP-glycosyltransferase 76G1 with E224D, T284I, T295I, V366I, R375S, K393G, Q397Y, E432Q
B13: UGT76G1var89: UGT76G1 variant, mutations F41L_E229A_E231A_F265L_P272A (protein, UniProt Q6VAB4 1-458, looked up, variant F41L E229A E231A F265L P272A)
UDP-glycosyltransferase 76G1: B1 UDP-glycosyltransferase 76G1 with F41L, E229A, E231A, F265L, P272A, T295I, L373I, R375S, Q397Y, E432Q
B14: UGT76G1var80: UGT76G1 variant, mutations L243P_L379A_S389E_Q425E_Q432E (protein, UniProt Q6VAB4 1-458, looked up, variant L243P L379A S389E Q425E Q432E)
UDP-glycosyltransferase 76G1: B1 UDP-glycosyltransferase 76G1 with L243P, T295I, L373I, R375S, L379A, S389E, Q397Y, Q425E
B15: UGT76G1var96: UGT76G1 variant, mutations F22L_E229A_L243P_F377C_A385T (protein, UniProt Q6VAB4 1-458, looked up, variant F22L E229A L243P F377C A385T)
UDP-glycosyltransferase 76G1: B1 UDP-glycosyltransferase 76G1 with F22L, E229A, L243P, T295I, L373I, R375S, F377C, A385T, Q397Y, E432Q
B16: UGT76G1var91: UGT76G1 variant, mutations E224A_L246F_T263S_F265I_Q342K (protein, UniProt Q6VAB4 1-458, looked up, variant E224A L246F T263S F265I Q342K)
UDP-glycosyltransferase 76G1: B1 UDP-glycosyltransferase 76G1 with E224A, L246F, T263S, F265I, T295I, Q342K, L373I, R375S, Q397Y, E432Q
B17: UGT76G1var87: UGT76G1 variant, mutations S241I_L243A_V300A_F314S_N409R (protein, UniProt Q6VAB4 1-458, looked up, variant S241I L243A V300A F314S N409R)
UDP-glycosyltransferase 76G1: B1 UDP-glycosyltransferase 76G1 with S241I, L243A, T295I, V300A, F314S, L373I, R375S, Q397Y, N409R, E432Q
B18: UGT76G1var83: UGT76G1 variant, mutations I43V_Q342E_S357N_S375R_L379G (protein, UniProt Q6VAB4 1-458, looked up, variant I43V Q342E S357N S375R L379G)
UDP-glycosyltransferase 76G1: B1 UDP-glycosyltransferase 76G1 with I43V, T295I, Q342E, S357N, L373I, L379G, Q397Y, E432Q
B19: UGT76G1var90: UGT76G1 variant, mutations E231A_S241I_S274G_Y397Q_Q425E (protein, UniProt Q6VAB4 1-458, looked up, variant E231A S241I S274G Y397Q Q425E)
UDP-glycosyltransferase 76G1: B1 UDP-glycosyltransferase 76G1 with E231A, S241I, S274G, T295I, L373I, R375S, Q425E, E432Q
B20: UGT76G1var6: UGT76G1 variant, mutations Q266S_S357N_I373L (protein, UniProt Q6VAB4 1-458, looked up, variant Q266S S357N I373L)
UDP-glycosyltransferase 76G1: B1 UDP-glycosyltransferase 76G1 with Q266S, T295I, S357N, R375S, Q397Y, E432Q
B21: UGT76G1var95: UGT76G1 variant, mutations A33G_I295M_K303G_I335V_A385T (protein, UniProt Q6VAB4 1-458, looked up, variant A33G I295M K303G I335V A385T)
UDP-glycosyltransferase 76G1: B1 UDP-glycosyltransferase 76G1 with A33G, T295M, K303G, I335V, L373I, R375S, A385T, Q397Y, E432Q
B22: UGT76G1var77: UGT76G1 variant, mutations A239V_F265I_I295T_D301N_K393G (protein, UniProt Q6VAB4 1-458, looked up, variant A239V F265I I295T D301N K393G)
UDP-glycosyltransferase 76G1: B1 UDP-glycosyltransferase 76G1 with A239V, F265I, D301N, L373I, R375S, K393G, Q397Y, E432Q
B23: UGT76G1var76: UGT76G1 variant, mutations F22Y_A239I_L246F_I295M_R334K (protein, UniProt Q6VAB4 1-458, looked up, variant F22Y A239I L246F I295M R334K)
UDP-glycosyltransferase 76G1: B1 UDP-glycosyltransferase 76G1 with F22Y, A239I, L246F, T295M, R334K, L373I, R375S, Q397Y, E432Q
B24: UGT76G1var86: UGT76G1 variant, mutations E224A_T284L_V396F_Y397E_I407V (protein, UniProt Q6VAB4 1-458, looked up, variant E224A T284L V396F Y397E I407V)
UDP-glycosyltransferase 76G1: B1 UDP-glycosyltransferase 76G1 with E224A, T284L, T295I, L373I, R375S, V396F, Q397E, I407V, E432Q
B25: UGT76G1var82: UGT76G1 variant, mutations E224D_L243A_F265L_R334H_A352G (protein, UniProt Q6VAB4 1-458, looked up, variant E224D L243A F265L R334H A352G)
UDP-glycosyltransferase 76G1: B1 UDP-glycosyltransferase 76G1 with E224D, L243A, F265L, T295I, R334H, A352G, L373I, R375S, Q397Y, E432Q

assay: Directed evolution of UGT76G1, Rebaudioside D to Rebaudioside M, round 1 (Example 26); assay type: biochemical; conditions: 100 μL fresh lysate, 0.5 mM Rebaudioside D, 30° C., pH 7.2
In short: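 Cleared cell lysate (Bugbuster) incubated with 0.5 mM Rebaudioside D, 3 mM MgCl2 and 2.5 mM UDP-glucose in 50 mM phosphate pH 7.2 at 30 °C. Samples at 2, 4, 7 and 24 h analysed by HPLC-CAD for conversion and initial rate.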

| Molecule | conversion Reb D to Reb M after 24 h | initial rate |
| --- | --- | --- |
| B1 | 0.6% | 9.6E+04 Reb M area/min |
| B2 | 3.5% | 2.3E+06 Reb M area/min |
| B3 |  | 8.6E+06 Reb M area/min |
| B4 | 3.2% | 8.2E+05 Reb M area/min |
| B5 | 1.6% | 3.6E+05 Reb M area/min |
| B6 | 1.2% | 2.3E+05 Reb M area/min |
| B7 | 0.8% | −1.3E+05 Reb M area/min |
| B8 | 1.8% | 4.0E+05 Reb M area/min |
| B9 | 1.6% | 3.8E+05 Reb M area/min |
| B10 | 15.0% | 6.5E+06 Reb M area/min |
| B11 | 1.8% | 4.5E+05 Reb M area/min |
| B12 | 8.5% | 3.8E+06 Reb M area/min |
| B13 | 1.2% | 2.1E+05 Reb M area/min |
| B14 | 1.0% | 2.1E+05 Reb M area/min |
| B15 | 1.2% | 2.7E+05 Reb M area/min |
| B16 | 1.2% | 2.3E+05 Reb M area/min |
| B17 |  | 2.1E+07 Reb M area/min |
| B18 | 0.5% | 4.3E+04 Reb M area/min |
| B19 |  | 1.9E+07 Reb M area/min |
| B20 | 0.5% | 1.8E+06 Reb M area/min |
| B21 | −1.3% | −1.7E+05 Reb M area/min |
| B22 | 1.9% | 4.4E+05 Reb M area/min |
| B23 | 2.6% | 7.2E+05 Reb M area/min |
| B24 | 1.6% | 3.8E+05 Reb M area/min |
| B25 | 1.1% | 2.5E+05 Reb M area/min |
